According to the supplement of paper PMC10567573:
± gives the standard deviation.

Assay: protein stability index of a GFP-peptide fusion (GPS, HEK-293T) (PSI 1-6); higher = more stable
[1] = treatment: DMSO, c terminus: a fixed tail appended
[2] = treatment: MLN4924 1 uM, 8 h, c terminus: a fixed tail appended
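Also: 24-mer peptide tiles fused after GFP, lentivirally expressed, FACS-sorted into six equal bins by GFP/DsRed ratio, decoded by Illumina sequencing, PSI is the read-weighted mean bin number.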

| Sequence | protein stability index [1] | protein stability index [2] | protein stability index (treatment: DMSO, c terminus: native) | protein stability index (treatment: MLN4924 1 uM, 8 h, c terminus: native) |
| --- | --- | --- | --- | --- |
| TGRFSFTLPYPVKIKVRFSFFLQI [HACD3] | 3.14 ± 0.37 | 2.92 ± 0.17 |  |  |
| SYSIQKVIGFAKMIPGFRDLTSED [VDR] | 2.52 ± 0.29 | 2.88 ± 0.12 |  |  |
| SQLSVLSLSGVMLTDVSPEPLQAL [PRAME] | 2.36 ± 0.37 | 2.4 ± 0.3 |  |  |
| STMRRMALRPTAFSGCLNCSKVSE [EMID1] | 2.5 ± 0.21 | 3.13 ± 0.62 |  |  |
| RAPSRRHGVRAKVQPQARKKEMEM [CPN1] | 4.39 ± 0.26 | 4.64 ± 0.082 |  |  |
| EVFEGREDSIFGDPKKLLTQYFVQ [MAGEA6] | 2.34 ± 0.18 | 2.46 ± 0.18 |  |  |
| QCFFNGVFLGNKRSLSERTVDKCF [SPATS1] | 2.13 ± 0.25 | 2.34 ± 0.24 |  |  |
| SYLSLTSEDNTSFDRKKKSISLMY [SLA] | 2.94 ± 0.18 | 2.95 ± 0.25 |  |  |
| ANYTCVAMSTLGVIEAIAQITVKA [PTPRD] | 2.63 ± 0.16 | 3.29 ± 0.93 |  |  |
| DLFEKKGYTFDYAYDWVGRPIPTP [CSNK1G1] | 2.26 ± 0.58 | 2.37 ± 0.29 |  |  |
| YFLLCDVLPEDRILREELQKQRLR [ZNF277] | 2.37 ± 0.3 | 2.28 ± 0.54 |  |  |
| VLVLAVQVHAWQLYYSKKLLDSWF [JAGN1] | 3.23 ± 0.49 | 3.06 ± 0.91 |  |  |
| HTLPVNRETLKRKVSGNRCASPVT [ESR2] | 4.07 ± 0.14 | 4.24 ± 0.15 |  |  |
| YEAGQVTLHNAQTQEPIFTFTASF [TRIM15] | 2.38 ± 0.17 | 2.11 ± 0.15 |  |  |
| EDVRIFFYQSPYDSEQVPQALRRL [NCF4] | 2.79 ± 0.31 | 2.98 ± 0.4 |  |  |
| FFIGFTALVIMWQKHYVYGPLPQS [COX4I1] | 3.22 ± 0.34 | 3.36 ± 0.57 |  |  |
| EIELQAQHNLRYSLENTLTESEAR [KRT33B] | 4.7 ± 0.2 | 4.48 ± 0.18 |  |  |
| RLMSFRPICSANHKESKMTIFEKE [CRYBA1] | 3.14 ± 0.16 | 3.5 ± 0.21 |  |  |
| EQLMYIKEDLIIPHHHSFYDFIVT [FAM50A] | 2.42 ± 0.21 | 2.27 ± 0.21 |  |  |
| YSSRTPGTPGTPSYPRTPHTPGTP [MAP2] | 4.25 ± 0.26 | 4.27 ± 0.2 |  |  |
| TAVHGRFTRSQTLIQNGGEIDCVD [ANKRD44] | 4.34 ± 0.14 | 4.48 ± 0.19 |  |  |
| HPKPKLVRVLESLLVSLVTTVVVF [CLCN6] | 3.49 ± 0.47 | 3.56 ± 0.25 |  |  |

| Sequence | protein stability index [1] | protein stability index [2] | protein stability index (treatment: DMSO, c terminus: native) | protein stability index (treatment: MLN4924 1 uM, 8 h, c terminus: native) |
| --- | --- | --- | --- | --- |
| DYLDLDKMSLYSEADSGYGSYGGF [TRIM9] | 2.46 ± 0.51 | 2.77 ± 0.24 |  |  |
| IKSVLWQTLQALNFCHIHNCIHRD [CDKL4] | 3.15 ± 0.99 | 2.99 ± 0.72 |  |  |
| NPTRQDESIQRIAVHLCNALVCQV [ZER1] | 2.48 ± 0.74 | 2.27 ± 0.16 |  |  |
| PSVMDPGAFETVLASAYTGRLSMA [ZBTB22] | 2.3 ± 0.38 | 2.3 ± 0.17 |  |  |
| HMLNQVESKVKDILSKVQKNHVGK [FAM98B] | 2.55 ± 0.51 | 2.36 ± 0.32 |  |  |
| IGALTYFAQADALKGTLVSTLKEV [ACSBG2] | 2.21 ± 0.41 | 2.25 ± 0.56 |  |  |
| FGEDYYGPSRSRHRRRSRERGPYR [CLK3] | 3.27 ± 0.78 | 4.29 ± 0.89 |  |  |
| CADVLFILQDQEHIFAHRIYLATS [RHOBTB1] | 2.93 ± 0.44 | 2.89 ± 0.48 |  |  |
| TKLEAEIVTLRHVLAAKERRCGEL [TPD52L3] | 2.89 ± 0.22 | 2.78 ± 0.35 |  |  |
| AQYDSWPHYPEYFQQPAPEYHQPQ [LOXL2] | 3.62 ± 0.48 | 3.8 ± 0.49 |  |  |
| EAVLHCHQMGVVHRDLKPENLLLA [CAMK2A] | 2.64 ± 0.27 | 2.58 ± 0.38 |  |  |
| WTSFICDTYIVLAWISKIKGSPDV [SMIM2] | 3.52 ± 0.58 | 2.53 ± 0.38 |  |  |
| SVPPVAGAPSVGQPGAGFGMPPAG [SNAP91] | 4.38 ± 0.24 | 4.38 ± 0.058 |  |  |
| GETGSGDQAGGEGKHITVFKTYIS [MYOZ1] | 3.97 ± 0.14 | 4.06 ± 0.15 |  |  |
| SKAGPTRIFTSNTHSSVVLQGFDQ [KLHL13] | 3.53 ± 0.32 | 3.32 ± 0.12 |  |  |
| IFEDRIRGIDIIKWMERYLRDKTV [TRAF3IP2] | 2.02 ± 0.56 | 1.99 ± 0.23 |  |  |
| QFGLLSFFFAVLHAIYSLSYPMRR [STEAP1] | 3.28 ± 1 | 2.058 ± 0.016 |  |  |
| MGRKRLITDSYPVVKRREGPAGHS [POLD4] | 3.33 ± 0.32 | 3.2 ± 0.29 |  |  |
| GCSAVSEPASESVVGALPAEHQFS [TRAF3IP2] | 4.38 ± 0.34 | 4.6 ± 0.27 |  |  |
| IICEAHKVLGNRWAEIAKMLPGRT [MYBL2] | 2.25 ± 0.099 | 2.2 ± 0.16 |  |  |
| LTSLKDLYKSLKTLSAELVPWLNL [CEP70] | 3.15 ± 0.57 | 3.07 ± 0.42 |  |  |
| VFFFIFFVQDVLFVLQAIGIPGWG [SCAMP3] | 3.44 ± 0.83 | 2.93 ± 0.71 |  |  |

| Sequence | protein stability index [1] | protein stability index [2] | protein stability index (treatment: DMSO, c terminus: native) | protein stability index (treatment: MLN4924 1 uM, 8 h, c terminus: native) |
| --- | --- | --- | --- | --- |
| LDNLLAFVCDIRPEIHENYRING [ATP6V1G1] |  |  | 2.27 ± 0.49 | 2.47 ± 0.21 |
| SYFKCVQKEVLPSMRKIVATWMLE [CCND1] | 2.91 ± 0.76 | 2.46 ± 0.37 |  |  |
| FGEVRPYFYLGGARGAGPPEPLRI [TRIM35] | 2.63 ± 0.91 | 2.76 ± 0.18 |  |  |
| EQTAPGDSTGYMEVSLDSLDLRVK [EHMT1] | 4.59 ± 0.32 | 4.87 ± 0.2 |  |  |
| VTQDGRKIYFTDSSSKWQRRDYLL [APMAP] | 2.51 ± 0.18 | 2.41 ± 0.63 |  |  |
| LRSRYSVASFKFDAGEVSYLPRDF [MYORG] | 2.37 ± 0.12 | 2.42 ± 0.37 |  |  |
| CLESTKLLADLKKCGDLECEALIN [MIA2] | 3 ± 0.32 | 3.25 ± 0.14 |  |  |
| LCGAGSEPSIAPTSCAGNLPSRPP [RSPH3] | 4.36 ± 0.36 | 4.28 ± 0.21 |  |  |
| LSFQEELLYWGIAEDHLDGCCKRR [KCNG1] | 2.35 ± 0.36 | 2.61 ± 0.26 |  |  |
| QFGIKDVFDNAIRAALISRRHLQF [RHOBTB1] | 2.62 ± 0.38 | 2.59 ± 0.46 |  |  |
| IDCGKAFSQKSCLVAHQRYHTGKT [ZNF649] | 2.83 ± 0.24 | 2.87 ± 0.16 |  |  |
| EERVRVLQGVRLSENVVNRMKEPS [CHCHD6] | 4.6 ± 0.51 | 4.64 ± 0.19 |  |  |
| GSKGEKDLGASSLHVNGESLEMDS [EHMT1] | 5.28 ± 0.26 | 5.39 ± 0.27 |  |  |
| GPGSKRDAHFCAVCSDYASGYHYG [ESR2] | 2.42 ± 0.2 | 2.65 ± 0.32 |  |  |
| KLYGQRERVWALAQEKAADVQARL [FCHSD1] | 3.51 ± 0.32 | 3.49 ± 0.3 |  |  |
| RLEELTNRLASLQQENKVLKIELE [CCDC6] | 3.65 ± 0.23 | 3.78 ± 0.38 |  |  |
| PTTEPETEPEDDRGPVVPKHSTFG [GNAS] | 5.4 ± 0.18 | 5.27 ± 0.42 |  |  |
| QGTTVPAHRAILVARCEVMAAMFN [RHOBTB3] | 2.1 ± 0.18 | 2.17 ± 0.097 |  |  |
| RKSSFAFYQAVRDLLPVWLLEDMR [ANKRD9] | 3.03 ± 0.99 | 2.21 ± 0.38 |  |  |
| GPMEEVERQVLPDPEVLEAVGDRQ [PBXIP1] | 5.62 ± 0.25 | 5.59 ± 0.21 |  |  |
| EVRDRMLLKITIPNAFIGSDVVDW [DVL3] | 2.17 ± 0.43 | 2.46 ± 0.15 |  |  |
| RMYCSDLLNPNLKDTVICAMKITQ [SPACA3] | 2.15 ± 0.42 | 2.05 ± 0.17 |  |  |

| Sequence | protein stability index [1] | protein stability index [2] | protein stability index (treatment: DMSO, c terminus: native) | protein stability index (treatment: MLN4924 1 uM, 8 h, c terminus: native) |
| --- | --- | --- | --- | --- |
| NSGLKPKDNEFTSKPWHWPINYQG [POMT2] | 2.99 ± 0.18 | 3.24 ± 0.27 |  |  |
| GKLVLSSLPKRLCLVCGDVASGYH [ESRRA] | 2.38 ± 0.45 | 1.97 ± 0.33 |  |  |
| ELSRIVLMRHGMEKIWRPNRVFSL [RAB40C] | 2.37 ± 0.37 | 2.63 ± 0.41 |  |  |
| IRVKIADLGNACWVHKHFTEDIQT [SRPK2] | 2.43 ± 0.5 | 2.26 ± 0.57 |  |  |
| QTSAFARQPRDELERVRVSCTIIF [TMEM175] | 2.46 ± 0.55 | 2.62 ± 0.61 |  |  |
| KCRSTISAEKCGPPPPIDNGDITS [CFHR2] | 4.52 ± 0.071 | 4.45 ± 0.29 |  |  |
| RLRQLKVRNDSCVVHEDFREDILS [PKD2L1] | 3.47 ± 0.43 | 3.65 ± 0.43 |  |  |
| ISGGFDRTVAIWDVAEGYRKLSLK [WDR88] | 3.09 ± 0.49 | 3.02 ± 0.36 |  |  |
| QWIEVDARRLTRFTGVITQGRNSL [CPXM2] | 2.91 ± 0.6 | 2.52 ± 0.17 |  |  |
| THACREYLKNLPLLSKYCGYREDN [TPH1] | 2.22 ± 0.26 | 2.18 ± 0.41 |  |  |
| DQEQGSSFQMSEGSEAAVIPLDLG [FAM189A2] | 5.34 ± 0.35 | 5.48 ± 0.17 |  |  |
| GPPAPVGPPHARISQHGDPLLSNT [EMID1] | 4.37 ± 0.24 | 4.55 ± 0.72 |  |  |
| LMILRRVVNESTVCLMGHERRQTL [TENT5C] | 2.33 ± 0.18 | 2.34 ± 0.32 |  |  |
| TAEAEELKPFFMKEVGSHFDDFVT [SOAT1] | 3.91 ± 0.25 | 3.94 ± 0.34 |  |  |
| KPKIEDVGSDEEDDSGKDKKKKTK [HSP90AB1] | 5.54 ± 0.24 | 5.56 ± 0.12 |  |  |
| AQLELYQLQVESNSSQLLLRRHAG [SCARA5] | 2.71 ± 0.26 | 2.9 ± 0.25 |  |  |
| TWKKNRRQLAYSTVGTPDYIAPEV [STK38L] | 3.39 ± 0.2 | 3.48 ± 0.4 |  |  |
| VLYTDKTYAMGHLIQRKKVHVFGD [TNFSF13B] | 2.28 ± 0.14 | 2.51 ± 0.41 |  |  |
| VRSQTLPRTSEAQARKALFEKWEQ [SMTNL2] | 3.98 ± 0.28 | 4.16 ± 0.47 |  |  |
| LVGKPKIFIIQACRGNQHDVPVIP [CASP6] | 2.56 ± 0.66 | 2.1 ± 0.2 |  |  |
| AARSPQGLGASTAEISARTMQSMF [PTPRD] | 3.38 ± 0.26 | 3.29 ± 0.34 |  |  |
| DDGKLGATGPMGMRGFKGDRGPKG [SCARA5] | 5.02 ± 0.36 | 5.07 ± 0.13 |  |  |
